Measurements: the DeepSol protein solubility set

assay: soluble on expression in E. coli; label from the status in PepcDB or PDB records

Row | Sequence | soluble on expression in E. coli
1 | SSTIGSFEGFQAVSLKQEGDDQPSETDHLSMEEEDPMPRQISRQSSVTESTLYPNPYHQPYISRKYFATRPGAIETAMEDLKGHVAETSGETIQGFWLLTKIDHWNNEKERILLVTDKTLLICKYDFIMLSCVQLQRIPLSAVYRICLGKFTFPGMSLDKRQGEGLRIYWGSPEEQSLLSRWNPWSTEVPYATFTEHPMKYTSEKFLEICKLSGFMSKLVPAIQNAHKNSTGSGRGKKLMVLTEPILIETYTGLMSFIGNRNKLGYSLARGSIGF | soluble
2 | SSTKVPIYLKRGSRKGKKEKLRDLLSSDMISPPLGDFRHTIHIGSGGGDDMFGDISFLQGKFHLLPGTAVEEAEEDGSFDLPFQFTRTTTVCGRELPDGLSPLLKNAISLPVIGGPQALTLPTAQAPPKPPRLHLESPQPSPQPSPQGAGNVDVWRIPEAGSPHNGMSPEPEAEEPFLSHASSLLSLHVDLGPSILDDVLQIMDHDLGRVQIPT | soluble
3 | SSTTTGPEAAPKPSAKSIYEQRKRYSTVVMADVSQYHVNHLVTFCLGEEDGVHTVEDASRKLAVMDSQGRVWAQEMLLRVSPSQVTLLDPVSKEELESYPLDAIVRCDAVMPRGRSRSLLLLVCQEPERAQPDVHFFQGLLLGAELIREDIQGALQNYRSGRGERRAAALRATQEELRRGASPAAETPPLQRRPSVRLVINTVEPSAVRGRPQVESIPETEEARKPDQARTTSSADPTSPDLGPRGPELAGLQAERDVDILNHVFDDVESFVSRLQKSAEATRVLEHRERGRRTRRRAAGEGLLTLRAKPPTEAEYTDVLQKIKYAFSLLARLRGNIANPSSPELLHFLFGPLQMIVNTSGGPEFAKSVRRPHLTLEAVTLLRDNVTPGENELWTSLGDSWTCPGVELPPEEGSPYSPEFYNGWEPPATDPQGRPWEDPVEKQLQHEKRRRQQSAPQVAVNGKIQNWKLSPS | soluble
4 | SSYADFVWFLISEEDKRNPTSIEYWFRCMDVDGDGILSMYELEYFYEEQCERMEAMGIEPLPFHDLLCQMLDLVKPASDGRITLRDLKRCRMAHIFYDTFFNLEKYLDHEQRDPFAVQKDVENDGPEPSDWDRFAAEEYEALVTEESAQVQLQEGSFEDYESDEPVSPSELGNKGNKIVTSSLSEKCGKLQSVDEE | soluble
5 | SSYNILSQDLLEDNSHLYRHCRRPVLHWSFRFPNILKEIKHFDADVLCLQEVQEDHYGAEIRPSLESLGYHCEYKMRTGRKPDGCAICFKHSKFSLLSVNPVEFFRPDISLLDRDNVGLVLLLQPKIPYAACPAICVANTHLLYNPRRGDIKLTQLAMLLAEISSVAHQKDGSFCPIVMCGDFNSVPGSPLYSFIKEGKLNYEGLPIGKVSGQEQSSRGQRILSIPIWPPNLGISQNCVYEVQQVPKVEKTDSDLTQTQLKQTEVLVTAEKLSSNLQHHFSLSSVY | soluble
6 | STDISTVASPLFEGTEGCFLLYDASTNAEIAQFNKAKCATQMAPDSTFKIALSLMAFDAEIIDQKTIFKWDKTPKGMEIWNSNHTPKTWMQFSVVWVSQEITQKIGLNKIKNYLKDFDYGNQDFSGDKERNNGLTEAWLESSLKISPEEQIQFLRKIINHNLPVKNSAIENTIENMYLQDLDNSTKLYGKTGAGFTANRTLQNGWFEGFIISKSGHKYVFVSALTGNLGSNLTSSIKAKKNAITILNTLNL | soluble
7 | STTEIGWWKLTFLRKKKSTPKVLYEIPDTYAQTEGDAEPPRPDAGGPNSDFNTRLEKIVDKSTKGKHVKVSNSGRFKEKKKVRATLAENPNLFDDHEEGRSSK | soluble
8 | STYPPTPPNVTRLSDESVMLRWMVPRNDGLPIVIFKVQYRMVGKRKNWQTTNDNIPYGKPKWNSELGKSFTASVTDLKPQHTYRFRILAVYSNNDNKESNTSAKFYLQPGAALDPMPVPELLEIEEYSETAVVLHWSLASDADEHLITGYYAYYRPSSSAGEYFKATIEGAHARSFKIAPLETATMYEFKLQSFSAASASEFSALKQGRTQRPK | soluble
9 | SVEDELALFDKSINEFWNKFKSTDTSCQMAGLRDTYKDSIKAFAEKLSVKLKEEERMVEMFLEYQNQISRQNKLIQEKKDNLLKLIAEVKGKKQELEVLTANIQDLKEEYSRKKETISTANKANAERLKRLQKSADLYKDRLGLEIRKIYGEKLQFIFTNIDPKNPESPFMFSLHLNEARDYEVSDSAPHLEGLAEFQENVRKTNNFSAFLANVRKAFTATVYN | soluble
10 | SWMANQFFLLEEYTGSDYQYVGKLHSDQDRGDGSLKYILSGDGAGDLFIINENTGDIQATKRLDREEKPVYILRAQAVNRRTGRPVEPESEFIIKIHDINDNEPIFTKDVYTATVPEMADVGTFVVQVTATDADDPTYGNSAKVVYSILQGQPYFSVESETGIIKTALLNMDRENREQYQVVIQAKDMGGQMGGLSGTTTVNITLTD | soluble
11 | SYELTQPPSVSVAPGQTARISCSGDNIGGTFVSWYQQKPGQAPVLVIYDDNDRPSGIPERFSGSNSGNTATLTISGTQAEDEADYYCGTWDMVTNNVFGGGTKLTVLGQPKAAPSVTLFPPSSEELQANKATLVCLISDFYPGAVTVAWKADSSPVKAGVETTTPSKQSNNKYAASSYLSLTPEQWKSHRSYSCQVTHEGSTVEKTVAPTECS | soluble
12 | SYLYTLYSDVRTEVAKMERVAWLEVVGKFETEKLTPNSLYEVVFVVKLIDSAKGWDFRVNFKLVLPTGETKERRENVNLLERNKWVEIPAGEFMISPEHLSGKIEFSMLEVKSDQWKSGLIVKGVAIRPKN | soluble
13 | SYSKTNEAAIEKTRHIANAAVYGRPEYRYNGALNLHYRPKRTDSTLLLNGGMNLNGEVLIEGGNMIVSGRPVPHAYDHQAKREPVLENEWTDGSFKAARFTLRNHARLTAGRNTAHLDGDITAYDLSGIDLGFTQGKTPECYRSYHSGSTHCTPNAVLKAENYRALPATQVRGDITLNDRSELRLGKAHLYGSIRAGKDTAVRMEA | not soluble
14 | SYSSAFAQAASSSLATSSAISRAFASVSSASAASSLAYNIGLSAARSLGIASDTALAGALAQAVGGVGAGASASAYANAIARAAGQFLATQGVLNAVNASSLGSALANALSDSAANSAVSGNYLGVSQN | soluble
15 | TAKQRDDAIENAEAAKVESEQVAKKATEGELHLAEVLEQANLNSIELKSVSQALDEQSSQLDEQVNALNVNSESQASAAEQMSQQVHHMATGIEESSKFVEELREKSEDVHQQAEKSSELLEDSTQAIGQIITSHEEIMKVADLITSVAEANQLAGFKCGNRSGASRRSGQRFCCGCRASTRAICEE | not soluble
16 | TETMTVTATGNARSSFEAPMMVSVIDTSAPENQTATSATDLLRHVPGITLDGTGRTNGQDINMRGYDHRGVLVLVDGIRQGTDTGHLNGTFLDPALIKRVEIVRGPSALLYGSGALGGVISYDTVDAKDLLQEGQSSGFRVFGTGGTGDHSLGLGASAFGRTENLDGIVAWSSRDRGDLRQSNGETAPNDESINNMLAKGTWQIDSAQSLSGLVRYYNNDAREPKNPQTVEASESSNPMVDRSTIQRDAQLSYKLAPQGNDWLNADAKIYWSEVRINAQNTGSSGEYREQITKGARLENRSTLFADSFASHLLTYGGEYYRQEQGSHHHHHHHPGGATTGFPQAKIDFSSGWLQDEITLRDLPITLLGGTRYDSYRGSSDGYKDVDADKWSSRAGMTINPTNWLMLFGSYAQAFRAPTMGEMYNDSKHFSIGRFYTNYWVPNPNLRPETNETQEYGFGLRFDDLMLSNDALEFKASYFDTKAKDYISTTVDFAAATTMSYNVPNAKIWGWDVMTKYTTDLFSLDVAYNRTRGKDTDTGEYISSINPDTVTSTLNIPIAHSGFSVGWVGTFADRSTHISSSYSKQPGYGVNDFYVSYQGQQALKGMTTTLVLGNAFDKEYWSPQGIPQDGRNGKIFVSYQW | soluble
17 | TGAGTPSQGKKNTTTHTKCRRCGEKSYHTKKKVCSSCGFGKSAKRRDYEWQSKAGE | soluble
18 | TGEESLQQVAMRASRLGLPKEHLKMLSETNVDKICQIAEKEQPRIMVIDSIQVMHVSDVQSSPGSVAQVRESATALTRYAKQNNVAVFIVGHVTKDGTLAGPKVLEHIIDCSVLLDGGTDSRFRTLRSHKNRFGAVNELGVFAMTGQGLKEVSNPSAIFLSRGEEETSGSSVMVVWEGTRPLLVEIQALVDYSQLANPRRVAVGLEQNRLSLLLAVLHKHGGLQMADQDVFVNVVGGV | not soluble
19 | THQMNQFYTTGAGRDIFATDEAKQVSAHLANEVDQLAQSLLKKEVYDKTKLFVADFVRQYPFADLSMIRTPAYRAWLEANQISEEDAVTTLGTMPEALGDVSDRLSLVSEQTPKIMTWKAQLLALNSSASIEKVNAALNSLQVTADSMRDFIDNNPEYMRYLAEQMAVELQPLVDDIDQKTEARLSQLGEERQALEEMVARERQEIALIITHEREKFAQDMDRVSQEVVNLAMTKLIELVKST | not soluble
20 | TKLTEQQTMNGLLRFGEYQRIIERRSFSLLDMKRFVTALGLESGGYRGEFSDLVNQGQPAIVPISYAGFKHFVVYKGYKDGRVYVADPALGNISFDEVRFKEIWENNTLFLIQVPE | not soluble
21 | TLLPQVQEVAYNQMANAGYEGAVVAIKPSTGEILAMASTPSYDPSAIVNPDTAEQTWAALNADPGNPLLNHATQETLPPGSTFKVITTAAGLNAGYGPGSMLTGQDRITLPDGITTLENYAGQTCAGSQNVTLATAFQYSCNTAFVQMGIDVGKEKFDEAAHAFGVNDRYDLGVDMAPGTIGDVSDPSARGQSSIGQRDVAMSVLHNAVVAATVANGGKRMEPHLVNRIVGQDLKVIKETKPHQINEAVTPEVAATLTDLMRLSERHTAGYTGADIASKTGTAEHGEDSRNSNPHAWYIAFGPSANADVAVAVVVKNGGDAGQAATGGSVAAPIGRAVIAAAQAALAARG | not soluble
22 | TNTEAFCTSCHEMQSNVFEELTRTVHYTNRSGVRAGCPDCHVPHEWTDKIARKMQASKEVWGHLFGTIDTRRKFLDNRLRLAEHEWARLKANDSLECRNCHSEVAMDFTRQTDRAAQIHTQYLIQTEGYTCIDCHKGIAHEL | not soluble
23 | TPIPHKITSFAEQMRGLRSESKVLELVVIPADHSIAELLKMKENEPVNKLVRVRYAEGEPLQYHTSYIPWKAAPGLAQEECTGSLFELLRTKYNIEISRGTESIEPILTDETISGHLLTNVGAPAFLSESLTYDKNEEVVEYAQIITRGDRTKFTVEQSYHS | not soluble
24 | TRDFMWRLGLNLTHYKNVVTDLPLKDMPVSGVHKLAVGRSVYDFYMKKWAGVDPENGDPLWYKNVKDANNKITGRTTTNDYAQADYYYTGKSSLPKVYGGFNTAFSYKGFELSTIFAYSIGNYIVDRDVTMLWHNGSSTGRAWSTEILNRWTPENRYTDVPALKTVSNSWNANSTRNLFNNSFLRMKNITLSYNFPQPMIKKISLNSLQLFVQADNLLTVSKNQGLDPEQDISGLTYYRYPAMRSISGGINVSF | not soluble
25 | TRPIFAIEQLSPYQNVWTIKARVSYKGEIKTWHNQRGDGKLFNVNFLDTSGEIRATAFNDFATKFNEILQEGKVYYVSKAKLQPAKPQFTNLTHPYELNLDRDTVIEECFDESN | soluble
26 | TRTLRGVMRVGLVAKCLLLKGDLDLELVLLCKEKPTTALLDKVADNLAIQLAAVTEDKYEILQSVDDAAIVIKNTKEPPLSLTIHLTSPVVREEMEKVLAGETLSVNDPPDVLDRQKCLAALASLRHAKWFQARANGLKSCVIVIRVLRDLCTRVPTWGPLRGWPLELLCEKSIGTANRPMGAGEALRRVLECLASGIVMPDGSGIYDPCEKEATDAIGHLDRQQREDITQSAQHALRLAAFGQLHKVLGMD | not soluble
27 | TSEEYYKRKKQIKKLMSDQYAFLDLHGFTLHEDLYFEGIYEGFFFRVCPATEYIKKGYAGKKAIEYVIIESFYRFASEATDMDREVKMSGEYNFGDVHFENHCAGFVPKDWKNPDFKANFDALITIFEREGLLPITKNDWESTFGQHSKKAKDASRKNPQR | not soluble
